Patent US20240197738

Target: EWS-FLI1-3A (S464A/S465A/S466A)

B1: OTUD7A (protein)
chain: MVSSVLPNPTSAECWAALLHDPMTLDMDAVLSDFVRSTGAEPGLARDLLEGKNWDLTAALSDYEQLRQVHTANLPHVFNEGRGPKQPEREPQPGHKVERPCLQRQDDIAQEKRLSRGISHASSAIVSLARSHVASECNNEQFPLEMPIYTFQLPDLSVYSEDFRSFIERDLIEQATMVALEQAGRLNWWSTVCTSCKRLLPLATTGDGNCLLHAASLGMWGFHDRDLVLRKALYTMMRTGAEREALKRRWRWQQTQQNKEEEWEREWTELLKLASSEPRTHFSKNGGTGGGVDNSEDPVYESLEEFHVFVLAHILRRPIVVVADTMLRDSGGEAFAPIPFGGIYLPLEVPPNRCHCSPLVLAYDQAHFSALVSMEQRDQQREQAVIPLTDSEHKLLPLHFAVDPGKDWEWGKDDNDNARLAHLILSLEAKLNLLHSYMNVTWIRIPSETRAPLAQPESPTASAGEDVQSLADSLDSDRDSVCSNSNSNNGKNGKDKEKEKQRKEKDKTRADSVANKLGSFSKTLGIKLKKNMGGLGGLVHGKMGRANSANGKNGDSAERGKEKKAKSRKGSKEESGASASTSPSEKTTPSPTDKAAGASPAEKGGGPRGDAWKYSTDVKLSLNILRAAMQGERKFIFAGLLLTSHRHQFHEEMIGYYLTSAQERFSAEQEQRRRDAATAAAAAAAAAAATAKRPPRRPETEGVPVPERASPGPPTQLVLKLKERPSPGPAAGRAARAAAGGTASPGGGARRASASGPVPGRSPPAPARQSVIHVQASGARDEACAPAVGALRPCATYPQQNRSLSSQSYSPARAAALRTVNTVESLARAVPGALPGAAGTAGAAEHKSQTYTNGFGALRDGLEFADADAPTARSNGECGRGGPGPVQRRCQRENCAFYGRAETEHYCSYCYREELRRRREARGARP
3A-EWS-FLI1 protein level after OTUD7A depletion (immunoblot, FIG. 3I): depletion of OTUD7A failed to reduce 3A-EWS-FLI1 protein levels
